Biological target: RNF20 (UniProt Q5VTR2)
Test: co-IP with anti-Myc, anti-Flag blot
Settings: reference: Flag-LSD1-WT; sites T810,S817,T841,S849,S851

binding against the reference: weaker
Substance: LSD1 (from UniProt O60341) Flag-LSD1-5A

— article PMC10873621
